“Also recorded” adds a separate entry of the source.
Tests used:
HT29 cells = assay: In vitro CRC proliferation assay, HT29; assay type: cell-based, human; settings: 20 μg/mL; for cell index at the end point: 72 hours, MOCK 2.94±0.04; for cell growth inhibitory ability: end point, relative to the control PBS
Method: The four anti-GRP94 human IgG antibodies B5, E5, 2H5, and 3G7 of the present disclosure were examined in vitro for effect on CRC cell proliferation. […] The culture medium was removed by suction and the cells were washed with 10 mL of phosphate buffered saline (hereinafter PBS). After removal of PBS by suction, the cells were treated 2 mL of TrypLE Express Enzyme at 37° C. for 3 minutes in a 5% CO2 incubator. Thereafter, the cells were added with 8 mL of the culture medium, transferred to 15-mL tube, and centrifuged at 500×g for 5 minutes. After removal of the supernatant, the cells were suspended in the culture medium. From a small portion of the cell suspension, the cells were counted using the Countess II Automated Cell Counter. […] The 96-well plates were mounted on the Incucyte Zoom system. With the microscope magnification set at 4×, images were collected at intervals of 2 hours for 72 hours. From the collected images, cell growth was monitored using the IncuCyte FLR live content imaging system (Essen Bioscience, Ann Arbor, MI, USA).

HCT116 cells = assay: In vitro CRC proliferation assay, HCT116; assay type: cell-based, human; settings: 20 μg/mL, end point, relative to the control PBS
Method: The four anti-GRP94 human IgG antibodies B5, E5, 2H5, and 3G7 of the present disclosure were examined in vitro for effect on CRC cell proliferation. For use in the efficacy assay, the four cetuximab-resistant colorectal cancer cell lines HCT116, HT29, LoVo, and HCT-8 were each grown in a culture medium (HCT116, HCT8, HT29, and LoVo: RPMI1640+10% FBS+1% Penicillin-Streptomycin) at 37° C. in T-75 flask in a 5% CO2 incubator until reaching about 80-90% confluency. The culture medium was removed by suction and the cells were washed with 10 mL of phosphate buffered saline (hereinafter PBS). After removal of PBS by suction, the cells were treated 2 mL of TrypLE Express Enzyme at 37° C. for 3 minutes in a 5% CO2 incubator. Thereafter, the cells were added with 8 mL of the culture medium, transferred to 15-mL tube, and centrifuged at 500×g for 5 minutes. After removal of the supernatant, the cells were suspended in the culture medium. From a small portion of the cell suspension, the cells were counted using the Countess II Automated Cell Counter. […] The 96-well plates were mounted on the Incucyte Zoom system. With the microscope magnification set at 4×, images were collected at intervals of 2 hours for 72 hours. From the collected images, cell growth was monitored using the IncuCyte FLR live content imaging system (Essen Bioscience, Ann Arbor, MI, USA).

[1] = system: HCT116 subcutaneous xenograft; assay: Tumor growth inhibition by sole administration, colorectal xenograft model; assay type: in vivo, Balb/c nude mice; settings: 10 mg/kg intravenous twice per week for six weeks; for tumor growth inhibition compared to PBS: n=9
Source text: For use in assaying in-vivo efficacy of the four antibodies of the present disclosure, a subcutaneous xenograft mouse model was established by injecting the metastatic colorectal cancer cell line HCT116 (5×10^6 cells) into 6-week-old Balb/c nude mice.

Molecule | cell index at the end point (HT29 cells) | cell growth inhibitory ability (HT29 cells) | cell growth inhibitory ability (HCT116 cells) | tumor growth inhibition compared to PBS [1] [%] | inhibitory activity against tumor growth compared to the controls ([1]; controls PBS and hIgG)
B5: anti-GRP94 human IgG antibody; CDRs SEQ ID NOS: 1 to 6, VH SEQ ID NO: 7, VL SEQ ID NO: 8 (antibody, V domains shown, Amino acid sequence of heavy chain variable of GRP94 B5; Amino acid sequence of light chain variable of GRP94 B5) VH: EVQLLESGGGLVQPGGSLRLSCAASGFTFSNYYMSWVRQAPGKGLEWVSGIYPNSGSTYYADSVKGRFTISRDNSKNTLYLQMNSLRAEDTAVYYCARDPLHPARFPFDYWGQGTLVTVSS VL: QSVLTQPPSASGTPGQRVTISCTGSSSNIGNNAVSWYQQLPGTAPKLLIYADSHRPSGVPDRFSGSKSGTSASLAISGLRSEDEADYYCGAWDASLNAYVFGGGTKLTVL | 2.32±0.02 | statistically significant; also recorded: excellent inhibitory activity | statistically significant; also recorded: excellent inhibitory activity | 30 | 
3G7: anti-GRP94 human IgG antibody; CDRs SEQ ID NOS: 25 to 30, VH SEQ ID NO: 31, VL SEQ ID NO: 32 (antibody, V domains shown, Amino acid sequence of heavy chain variable of GRP94 3G7; Amino acid sequence of light chain variable of GRP94 3G7) VH: EVQLLESGGGLVQPGGSLRLSCAASGFTFSNYSMSWVRQAPGKGLEWVSGIYYGSGNKYYADSVKGRFTISRDNSKNTLYLQMNSLRAEDTAVYYCAKNLASFDYWGQGTLVTVSS VL: QSVLTQPPSASGTPGQRVTISCSGSSSNIGSNSVNWYQQLPGTAPKLLIYSNSHRPSGVPDRFSGSKSGTSASLAISGLRSEDEADYYCGTWDSSLSGYVFGGGTKLTVL | 2.17±0.06 | statistically significant; also recorded: excellent inhibitory activity | statistically significant; also recorded: excellent inhibitory activity | 33 | 
E5: anti-GRP94 human IgG antibody; CDRs SEQ ID NOS: 9 to 14, VH SEQ ID NO: 15, VL SEQ ID NO: 16 (antibody, V domains shown, Amino acid sequence of heavy chain variable of GRP94 E5; Amino acid sequence of light chain variable of GRP94 E5) VH: EVQLLESGGGLVQPGGSLRLSCAASGFTFSNYAMSWVRQAPGKGLEWVSGISSSSGSTYYADSVKGRFTTSRDNSKNTLYLQMNSLRAEDTAVYYCARDRHPFSPNWFDYWGQGTLVTVSS VL: QSVLTQPPSASGTPGQRVTISCSGSPSNIGSNTVTWYQQLPGTAPKLLIYADSHRPSGVPDRFSGSKSGTSASLAISGLRSEDEADYYCASWDDSLNGYVFGGGTKLTVL | 2.32±0.08 | statistically significant; also recorded: excellent inhibitory activity | statistically significant; also recorded: excellent inhibitory activity |  | did not exhibit inhibitory activity

From patent US12448436B2, “Antibody specifically binding to GRP94 or antigen-binding fragment thereof, and uses thereof” (KOOKMIN UNIVERSITY INDUSTRY ACADEMY COOPERATION FOUNDATION, priority 2020, dated 2025)
